{"source": "paper PMC8453653", "about": "“Kinetic Characterization of a Putatively Chitin-Active LPMO Reveals a Preference for Soluble Substrates and Absence of Monooxygenase Activity” (ACS Catalysis, 2021)", "substrate": "O=C1O[C@H]([C@@H](O)CO)C(O)=C1O", "assay": "initial rates of oxidized product formation by HPAEC-PAD, Michaelis-Menten fit", "format": "biochemical, Aspergillus fumigatus", "details": "reductant (apparent half-saturating concentration), 1 μM LPMO, 1 mM H2O2, 2 mM (GlcNAc)4, aerobic, 50 mM bis-tris/HCl pH 6.5, 37 °C", "source_text": "initial rates of oxidized product formation by HPAEC-PAD, Michaelis-Menten fit on AfAA11B", "data": [{"protein": "AfAA11B (Aspergillus fumigatus Af293) (protein, gene 1257 bp; expressed in Pichia pastoris (PichiaPink Strain 4), no tag mentioned; copper-saturated) HMKMRQPTPYSDSSLNNSPLAADGSDFPCKLRDNAFVPPSQETIAQIGEVMPLTFTGSATHGGGSCQVSLTTDLKPSKDSKWMVIKSIEGGCPANVDGNMSGGADVPDPFEFNYTIPAGIEPGKYTLAWTWFNRIGNREMYMNCAPITVTAGSSKRDAAPVAEKVEVEKRSANFPAMFVANINGCTTKEGVDIRFPDPGDVVEYDGNPSNLQPAGEAACSGTPAWTVSGGSGSPSTPSTSSSTPAGTSAGVSVSVGATVGATPTAEPESSSSEPAESEGAPGVFAPTSATVFPSTPTASAAPTSSSSGAGSESDSSSSSNGALTGPCSTEGLWNCIDGSSFQRCANGQWTTAQQMAAGTECTVGQNAQFTISATAVKPRMINAMRHRKRAHGGHRHA", "values": [{"measurement": "Km", "value": "502 ± 35", "unit": "µM"}, {"measurement": "kcat", "value": "3.9 ± 0.2", "unit": "s^–1"}]}]}
